For data set [1], the target named is T1, phosphorylated Aurora-A CAKD (Homo sapiens, UniProt O14965, C290A/C393A).
T1 construct: 10 nM Aurora-A 122–403 C290A C393A phosphorylated protein; His (N, cleaved yes); made in house; host or cells: E. coli B834 (no lambda phosphatase)
T1 sequence (O14965 122-403 C290A/C393A): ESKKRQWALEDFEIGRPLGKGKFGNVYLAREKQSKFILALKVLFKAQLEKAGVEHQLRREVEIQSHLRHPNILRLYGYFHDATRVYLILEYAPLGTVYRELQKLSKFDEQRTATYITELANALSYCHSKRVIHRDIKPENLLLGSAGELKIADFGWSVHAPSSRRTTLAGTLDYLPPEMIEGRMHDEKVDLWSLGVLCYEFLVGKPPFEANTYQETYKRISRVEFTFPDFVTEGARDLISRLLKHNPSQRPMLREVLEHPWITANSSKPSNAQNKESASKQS
Put plainly: Fluorescence anisotropy competition with FAM-CEP192 501-533, phosphorylated Aurora-A. Particulars: competition with 100 nM FAM-CEP192 501-533, 10 μM phosphorylated Aurora-A CAKD, n = 3. The class given is binding. Here is the method:
(§1) Assays were performed in 25 mM HEPES pH 7.5, 150 mM NaCl, 2 mM DTT, 5 mM MgCl2, 0.01% Tween 20. For CEP192 and TPX2 competition assays 10 μM Aurora-A kinase domain (phosphorylated or unphosphorylated C290A C393A 122–403) was preincubated on ice with 100 nM FAM-TPX2 7-43 or 100 nM FAM-CEP192 501–533. For TACC3 competition, due to weaker binding, 25 μM Aurora-A kinase domain (phosphorylated or unphosphorylated C290A C393A 122–403) was preincubated with 100 nM FAM-TACC3 522-536. Serial dilutions of competitor (CEP192) were performed in triplicate into a low volume 384-well black plate, before the premixed Aurora-A and tracer were added. A control row included no tracer. Plates were left incubating for 1 h at room temperature before the fluorescence anisotropy was measured using a HIDEX plate reader, with excitation at 485 nm and emission at 535 nm. For direct binding experiments, the assay was performed as above, but the Aurora-A (122–403 C290A C393A or point mutants) was diluted across the plate from high to low concentration, before the addition of 50 nM tracer (FAM-CEP192 501–533) to three replicate rows. Buffer only was added to the control row.
(§2) Fluorescence anisotropy data were processed using Microsoft Excel to calculate intensity and anisotropy using the equation listed in (Yeo et al, [2013]). The IC50 and Kd values were calculated using Origin (OriginLab) where the data fitted to a sigmoid and are summarised in Appendix Table S3.
(In fluorescence polarisation assays a small probe gives low polarisation when free and higher when bound to something large.)

In a further data set the target is T2, Aurora-A CAKD (Homo sapiens, UniProt O14965, C290A/C393A).
T2 construct: 25 μM Aurora-A kinase domain (phosphorylated or unphosphorylated C290A C393A 122–403); His (N, cleaved yes); made in house; host or cells: E. coli
T2 sequence (O14965 122-403 C290A/C393A): T1 sequence (O14965 122-403 C290A/C393A)
Put plainly: Fluorescence anisotropy competition with FAM-TACC3 522-536. It counts as binding. The conditions noted are these: in words. As for the experimental part: as §1, with “For direct binding experiments, the assay was performed as above, but the Aurora-A (122–403 C290A C393A or point mutants) was diluted across the plate from high to low concentration, before the addition of 50 nM tracer (FAM-CEP192 501–533) to three replicate rows. Buffer only was added to the control row.” left out
as §2

The target in data set [2] is T1, phosphorylated Aurora-A CAKD. Put plainly: ADP-Glo kinase assay, kemptide substrate. It counts as biochemical. The conditions noted are these: ADP-Glo, phosphorylated Aurora-A CAKD, kemptide; in words. As for the experimental part:
Reactions were initiated by the addition of 10 μM ATP and 100 μM kemptide as substrate (Cambridge Bioscience Ltd). The reactions were incubated at room temperature for 60 min before 5 μl was transferred into 5 ul of ADP-Glo Reagent (Promega) in a 384-well low volume low binding plate (Greiner Bio-one). After a further 40 min at room temperature, 10 μl of kinase detection reagent was added to each well, and the reaction was allowed to incubate for an additional 30 min. Luminescence was measured on a HIDEX Sense plate reader (HIDEX) using a 1 s integration time. Control data was subtracted from the luminescence and three repeats were averaged before being fitted to a sigmoidal plot using Origin (OriginLab), where IC50 and EC50 values were calculated.
In general terms: In ADP-Glo the light output rises with the ADP produced.

For data set [3], the target named is T3, unphosphorylated Aurora-A CAKD (Homo sapiens, UniProt O14965, C290A/C393A).
T3 construct: 10 μM Aurora-A kinase domain (phosphorylated or unphosphorylated C290A C393A 122–403); His (N, cleaved yes); made in house; host or cells: E. coli RIL, co-expressed with lambda phosphatase
T3 sequence (O14965 122-403 C290A/C393A): T1 sequence (O14965 122-403 C290A/C393A)
Put plainly: Fluorescence anisotropy competition with FAM-TPX2 7-43. The class given is binding. Particulars: for IC50: competition with 100 nM FAM-TPX2 7-43, 10 μM unphosphorylated Aurora-A CAKD, n = 3 (Appendix Fig. S4E). As for the experimental part: as §1, §2

The target in data set [4] is T3, unphosphorylated Aurora-A CAKD. Put plainly: Fluorescence anisotropy competition with FAM-CEP192 501-533, unphosphorylated Aurora-A. The class given is binding. Here is the method: as §1, §2
In data set [5] the target is T1, phosphorylated Aurora-A CAKD. Put plainly: ITC, CEP192 with phosphorylated Aurora-A CAKD. It counts as binding. The conditions noted are these: ratio of Kd, phosphorylated vs unphosphorylated. As for the experimental part: (§3) Thermodynamic information was established using the ITC200 microcalorimeter (MicroCal, Northampton, MA). Proteins were dialysed overnight into 20 mM tris pH 7.5, 200 mM NaCl, 10% glycerol, 5 mM magnesium chloride (CEP192 constructs/mutants and Aurora-A 122–403 mutants). Experiments were carried out at 25 °C. The syringe contained 70 μl of 250 μM Aurora-A 122–403 (D274N C290A C393A or mutant). About 2 μl injections were applied every 180 s. The cell contained 205 μl of 25 μM CEP192 construct/mutant. Microcal Origin software version 7.0 was used to determine the dissociation constants (Kd). All measurements were repeated at least twice.
Background: In ITC the heat of successive injections is recorded.

A further data set deals with Aurora-A KD F165D/R205A. Put plainly: ITC, CEP192 with Aurora-A KD F165D/R205A. The conditions noted are these: 25 °C, pH 7.5. The class given is binding, human. Here is the method:
as §3

B1: CEP192 468-533: recombinant human CEP192 aa 468–533, minimal binding region (protein)
chain: PQSVVYQNEEGRWVTDLAYYTSFNSKQNLNVSLSDEMNEDFRSGSEAFDLIAQDEEEFNKEHQFIQ
modifications: left off: His6, N-terminal, cleaved | SUMO, N-terminal, cleaved
For the molecule B1, the IC50 in data set [1] was 0.63 µM; in data set [3], 3.24 µM; in data set [3] (listed as WT CEP192), about 4 µM; in data set [4] (competition with 100 nM FAM-CEP192 501-533, 10 μM unphosphorylated Aurora-A CAKD, n = 3), 1.42 µM. Also, the “competition for binding with FAM-TACC3 522-536” value with Aurora-A CAKD is “competed for binding with FAM-TACC3_522-536”. Moreover, in data set [2], the “effect on Aurora-A kinase activity” value is given as “partially inhibited the activity”. Moreover, the “competition for binding with FAM-TPX2 7-43” value in data set [3] (in words, Aurora-A CAKD) is listed as “competed for binding with FAM-TPX2_7-43”. Also, the “ability to compete for binding, phosphorylated vs unphosphorylated Aurora-A” value in data set [4] (competition with FAM-CEP192 501-533, in words) is recorded as “No significant difference”. Also, in data set [5], the “difference in affinity compared to unphosphorylated Aurora-A” value is on record as “around a twofold difference in affinity”. Also, the Kd on Aurora-A KD F165D/R205A was 26 ± 16 µM.

As a reminder, the IC50 is the concentration that inhibits the measured activity by half. A word on the Kd: it is the constant that tells how readily two partners part at equilibrium.
